Positions count from the first letter of the chain named.
B1: ADI-18883 (antibody, V domains shown)
VH: QVQLVQSGPEVKKPGSSVTVSCKASGGTFSNYGIAWVRQAPGQGLEWMGSTIPILGTASYRQSLKDRVTITADASTTTVYMEMTRLRTEDTAVYFCARVPESLVASNAYAVWGQGTVVTVSS
VL: DIQMTQSPSSVSASVGDRVTITCRASQDISTWLAWYQQRPGKAPKLLIYTASSLQSGVPSRFSGSGSGTEFTLTISSLQPEDFATYYCQQGTSFPFTFGPGTKLEIK
notes: full-length IgG from yeast
B2: ADI-18927 (antibody, V domains shown)
VH: QVQLVQSGAEVKKPGASVKVSCKASGYTFTDYFIHWVRQAPGEGLEWMGWVNPLSDNTKYSQKFQGRVTMSTDTSITTAYMYLSRLRFDDTAVYFCASQSSPYTPGALDVWGQGTTVTVSS
VL: DIQLTQSPSSLPASVGDRVTITCRASQNIGNNLAWYQQKAGRAPKLLIYSASNFHSGVPSRFIGSGSGTVFTLTISSLQPEDFATYFCQQSFTPQFTFGPGTKVEIK
notes: full-length IgG from yeast
B3: ADI-18936 (antibody, V domains shown)
VH: EVQLLESGAEVKKPGASVRVSCKASGYTFTDYFMNWVRQAPGGGLEWMGWVNPLSGATKYAQKFQGRVTMTTDTSITTGYLDLRSLRVDDTAIYFCASQSSPYTPGAMGVWGQGTTVTVSS
VL: DIQVTQSPSSLSASVGDRVTITCRASQSISGYLSWYQQKPGKAPNLLIYATSNLYSGVPSRFSGRDSGTDFTLTITSLQPEDFATYFCQLNSGALFTFGPGTKVEIK
notes: full-length IgG from yeast
B4: ADI-18921 (antibody, V domains shown)
VH: QVQLVQSGSEVKKPGASVRLSCKVAGYSLSELSMHWVRQSPGKGLEWLGAFDHEDAEAIYAPRFQGRITMTADTSTDTAYMELSSLRSEDTAVYYCATPTPVGATDYWGQGTLVTVSS
VL: DIQMTQSPSSLSASVGDRVTITCRASQSISSYLNWYQQKPGKAPKLLIYAASSLQRGGPSRFSGSGSGTDFTLTISSLQPEDFATYYCQQSYIIPYTFGQGTKVDIK
notes: full-length IgG from yeast
B5: ADI-18937 (antibody, V domains shown)
VH: QVQLQESGPGLVKPSQTLSLTCTVSGPSISAGDYNWNWIRQAPGKGLEWVGYIDYRGLTHYNPSLKGRLSILMDRSANQFSLELNSVTAADTAVYYCARDVGVYSGYDVFHYYGMDVWGQGTTVTVSS
VL: ETTLTQSPVTLSLSPGERATLSCRASQYVRNNYLAWYQHKPGQAPRLLIYSASSRVTGTPDRFSGSGSGTDFTLTISRLEPEDFAVYYCQQYGGSPPVTFGPGTKVDIK
notes: full-length IgG from yeast; also called Antibody Number 290; Ab # 290
B6: ADI-18930 (antibody, V domains shown)
VH: QVQLVQSGAEVKKPGSSVKVSCKASGGTFSGYHISWVRQAPGQGLEWMGGIIHLFGTVNYAPKFQGRVTITADASTGTAYMELNSLMSEDTAVYYCARDAYEVWTGSYLPPFDYWGQGTLVTVSS
VL: EIVLTQSPGTLSLSPGERVTLSCRASQTVTSSYLAWYQQKPGQAPRLLIYGAFTRATDIPDRFSGSGSGTDFTLTISRLEPEDSAVYYCQQYGSSFLTFGGGTKVDIK
notes: full-length IgG from yeast
B7: ADI-18953 (antibody, V domains shown)
VH: B6 VH with H33A, S35N, L54I, V68L, N84S, V93L
VL: B6 VL with I2T, V3T, S32N, G51D, D58G, I59V, D61A, S84F, D106E
notes: full-length IgG from yeast
B8: ADI-18882 (antibody, V domains shown)
VH: QVQLVQSGAEVKKPGSSVRVSCKASGGTFRGYGLSWVRQAPGQGLEWMGGITHLFGTVSYAPKFQGRLTITADASTGTAYMELSSLISEDTAVYFCARDAYEVWTGSYLPPFDYWGQGTMVTVSS
VL: B6 VL with E1D, L4M, T28I, V29I, T30P, S84F, D106E
notes: full-length IgG from yeast
B9: ADI-18880 (antibody, V domains shown)
VH: QVQLVQSGSEVKKPGAAVKVSCKASGYIFANFGVSWVRQAPGQGLEWMGWISAYNGNTNYAQKFQGRVIMTTDTSTSTAYMELRSLRSDDTAVYYCARDPPAYAATLMDVWGKGTTVTVSS
VL: EIVLTQSPLSLPVTLGQSASISCRSSQSLEHSDTNTYLTWYQQRPGQSPRRLLYKVSNRDSGVPDRFSGSGSGTDFTLKISRVEAEDVGVYYCMQGTHWPPTFGQGTKVDIK
notes: full-length IgG from yeast
B10: ADI-18904 (antibody, V domains shown)
VH: B9 VH with Q1E, Q6E
VL: B9 VL with E1D, L4M, V109L, D110E
notes: full-length IgG from yeast; also called Antibody Number 259; Ab # 259
B11: ADI-18935 (antibody, V domains shown)
VH: QVQLQESGPGLVKPSQTLSLTCTVSGRLLSSGDYYWSWIRQSPGRGLEWIGYVYHSGTTSYNPSLKSRITMTVDTSKNQFNLRLTSVTAADTAVYYCARDLGYSSSSPAFYYGIDFWGPGTMVTVSS
VL: EIVLTQSPATLSLSPGQRATLSCRASQSVGNYLAWYQQKPGQAPRLLIYDASNRVTGIPARFSGSGSGTDFTLTISRLESEDFAVYYCQQRSNGVLTFGGGTKVDIK
notes: full-length IgG from yeast
B12: ADI-18928 (antibody, V domains shown)
VH: QVQLVQSGAEVKRPGSSVRVSCKASGGTFRKYAISWVRQARGQGLEWMGGIIPMSGPPSYAQKFQGRVTITADESTSTVYMELSSLRFEDTAVYFCARDIEWFVLMDPITSYYPMDVWGQGTTVTVSS
VL: QSVVTQEPSLTVSPGGTVTLTCGSSTGGVTSGHHTYWFQQKPGQAPRTLIYDTTNTHSWTPARFAGSLLGGKAALTLSGAQPEDEADYYCLLSYSGARPVFGGGTKLTVL
notes: full-length IgG from yeast
B13: ADI-18879 (antibody, V domains shown)
VH: EVQLLESGGEVKKPGASVKVSCRASGYTFRNYGLTWVRQAPGQGLEWMGWISAYNGNTNYAQKFQGRVTLTTDTSTSTAYMELRSLRSDDTAVYFCARDVPGHGAAFMDVWGTGTTVTVSS
VL: DIQLTQSPLSLPVTLGQPASISCRSSQSLEASDTNIYLSWFQQRPGQSPRRLIYKISNRDSGVPDRFSGSGSGTHFTLRISRVEADDVAVYYCMQGTHWPPAFGQGTKVDIK
notes: full-length IgG from yeast
B14: ADI-18903 (antibody, V domains shown)
VH: B13 VH with L5V
VL: B13 VL with D1E, I2T, Q3T, V109L, D110E
notes: full-length IgG from yeast
B15: ADI-18875 (antibody, V domains shown)
VH: QVQLQQWGAGLLKPSETLSLTCAVYGGSFSGYSWSWIRQTPGKGLEWIGEINHRGSTNYNPSLKSRVTMSVDTSQNQISLRVTSVTAADTAVYFCAGTNYGEVNTSNQYFFGMDVWGQGTTVTVSS
VL: DIQVTQSPSSLSASVGDRVTITCRASQSIGTYLNWYQQKPGKPPKLLIYAASNLESGVPSSFSGSGSGTHFTLTISSLQPEHFATYYCQQSYSTPLTFGGGTKVEIK
notes: full-length IgG from yeast; also called Antibody Number 232; Ab # 232
B16: ADI-18939 (antibody, V domains shown)
VH: B15 VH with T40S, M69I, Q75K, I78F, R81K, V82L, T83S, F94Y
VL: B15 VL with Q3R, V4L, G30T, P43A, S67F, H70D, E81D, H82D, T94A, E105D
notes: full-length IgG from yeast; also called Antibody Number 292; Ab # 292
B17: ADI-18932 (antibody, V domains shown)
VH: QVQLQESGPGLVRPSQTLSLTCSASGAAINSGDYYWSWIRQAPGRGLEWIGSISNRGVTDYNPSLKSRVIISADTSKNQFSLRLTSVTATDTAVYYCARDLGTLAFDPYYYYGIDVWGQGTTVTVSS
VL: DIRMTQSPATLSLSPGERATLSCRASQSVSRHLAWYQQKPGQAPRLLIYDASYRVTGVPDRFSGSGSGTDFTLTISSLESEDFAIYFCQQRSTWPTFGQGTKVEIK
notes: full-length IgG from yeast
B18: ADI-18958 (antibody, V domains shown)
VH: QVQLQESGAEVKMRGASVKVSCKASGYTFSHYGISWVRQAPGQGLEWMGFISAYNHNTKYAQTVQGRVTLSTDTSTSTAYMELRSLRPDDTAMYYCAREPPSDDAARLFDYWGQGTLVTVSS
VL: ETTLTQSPRSLPVTLGQPASISCRSSQSLVYSEGNTYLSWFQQRPGQSPRRLIYKVSNRDSGVPDRFSGSGSGTDFTLKISRVEAEDVGVYYCMQGTQWPVTFGQGTKVEIK
notes: full-length IgG from yeast

Target: RSV F protein of subtype A (strain A2) on recombinant mKate-RSV virus (Respiratory syncytial virus subtype A …, UniProt P03420 26-574)
Assay: cell-based or functional assay

Row | Binder | Neut IC50 (µg/ml) subtype A [µg/mL]
1 | B1 | 0.041
2 | B2 | 0.022
3 | B3 | 0.032
4 | B4 | 1.7
5 | B5 | 0.084
6 | B6 | 0.013
7 | B7 | 0.034
8 | B8 | 0.041
9 | B9 | 0.041
10 | B10 | 0.018
11 | B11 | 0.779
12 | B12 | 0.034
13 | B13 | 0.041
14 | B14 | 0.036
15 | B15 | 0.04
16 | B16 | 0.018
17 | B17 | 0.184
18 | B18 | 0.587

Target: RSV F protein of subtype B (18537) on recombinant mKate-RSV virus (Respiratory syncytial virus subtype B …, UniProt P13843 26-574)
Assay: cell-based or functional assay

Row | Binder | Neut IC50 (µg/ml) subtype B [µg/mL]
19 | B1 | 0.05
20 | B2 | 0.067
21 | B3 | 0.035
22 | B4 | 1.17
23 | B5 | 0.508
24 | B6 | 0.051
25 | B7 | 0.022
26 | B8 | 0.057
27 | B9 | 0.055
28 | B10 | 0.089
29 | B11 | 0.355
30 | B12 | 0.062
31 | B13 | 0.103
32 | B14 | 0.118
33 | B15 | 0.035
34 | B16 | 0.038
35 | B17 | 0.351
36 | B18 | 3.36

Target: T1, RSV F subtype A, furin-cleaved ectodomain stabilized in the prefusion conformation (DS-Cav1) (Respiratory syncytial virus subtype A, UniProt P03420 26-524)
T1 construct: extracellular domain; Trimeric soluble antigen; also called Prefusion subtype A
Assay: BLI, IgG on AHQ sensor, 100 nM antigen

Row | Binder | Kd [nM]
37 | B1 | 0.431
38 | B2 | 3.58
39 | B3 | 0.303
40 | B4 | 5.75
41 | B5 | 0.289
42 | B6 | 0.387
43 | B7 | 0.513
44 | B8 | 0.427
45 | B9 | 0.255
46 | B10 | 0.251
47 | B11 | 0.66
48 | B12 | 0.449
49 | B13 | 0.312
50 | B14 | 0.324
51 | B15 | 0.736
52 | B16 | 0.574
53 | B17 | 0.917
54 | B18 | 0.286

Target: T2, RSV F subtype B, furin-cleaved ectodomain stabilized in the prefusion conformation (DS-Cav1) (Respiratory syncytial virus subtype B)
T2 construct: extracellular domain; Trimeric soluble antigen; also called Prefusion subtype B
Assay: BLI, IgG on AHQ sensor, 100 nM antigen

Row | Binder | Kd [nM]
55 | B1 | 0.566
56 | B2 | 2.99
57 | B3 | 0.298
58 | B5 | 0.273
59 | B6 | 0.372
60 | B7 | 0.421
61 | B8 | 0.476
62 | B9 | 0.304
63 | B10 | 0.237
64 | B11 | 0.582
65 | B12 | 0.515
66 | B13 | 0.358
67 | B14 | 0.272
68 | B15 | 0.764
69 | B16 | 0.56
70 | B17 | 1.39
71 | B18 | 0.302
